From patent US7604932B2, “Assay for tissue factor in a sample” (Haematologic Technologies, Inc., priority 2002, dated 2009) come the findings set out here.

The target in one data set is factor VIIa (Homo sapiens, UniProt P08709). Description: Fluorogenic TF cofactor activity assay with excess factor VIIa and D-FPR-(n-butyl)ANSN, read against the units/ml standard curve (FIG. 3). It counts as biochemical. The method, then: A standardized preparation of recombinant human TF with a cofactor activity of 241 units/ml (specific activity of 3906 units/milligram) was serially diluted to create stock assay standards in the range of 8 to 0.25 units/ml. One hundred microliters of each stock standard was combined with 50 microliters of 120 nM factor VIIa. Subsequently 50 microliters of 150 uM D-FPR-(n-butyl)ANSN was added and the rate of substrate hydrolysis was measured in a fluorometer at an excitation wavelength of 350 nm and an emission wavelength of 470 nm. A standard curve was generated in FIG. 3 by plotting the change in fluorescent intensity over time versus the concentration of TF (in units/ml). In a similar manner, a sample of TF (0.8 mg/ml) with an unknown amount of cofactor activity was assayed for comparison to the standard. After correcting for assay dilution, the unknown sample returned an assay value of 2803 units per milliliter, and thus a specific activity of 3504 units per milligram. Consequently, this allows for comparison of different preparations of TF using their specific activity, which is a direct indication of quality and functionality.

A further data set deals with fVIIa (Homo sapiens, UniProt P08709). Description: Fluorogenic TF assay of relipidated TF with 2 nM fVIIa and D-FPR-(n-butyl)ANSN, compared to the FIG. 2 calibration curve. It counts as biochemical. The note with it: 250 pM TF to 500 nM PCPS (75% PC, 25% PS); 2 nM fVIIa; 2 mM CaCl2, pH 7.4; 50 μM D-FPR-(n-butyl)ANSN. As to the method: Concentrations of TF were varied (0-500 pM) and incubated with 2 nM fVIIa in HBS pH 7.4, containing 2 mM Calcium Chloride (CaCl2), for 10 minutes at room temperature. Next, 50 μM D-FPR-(n-butyl)ANSN was added. Substrate hydrolysis was then monitored continuously for five minutes in a fluorometer at an excitation wavelength of 350 nm and an emission wavelength of 470 nm. The rates of substrate hydrolysis were determined for each TF concentration tested. The rate of hydrolysis by 2 nM fVIIa alone was measured and subtracted from the rates observed in the presence of TF. FIG. 2 is a graph of a calibration line based on these rates of hydrolysis at various TF concentrations.
In this example the preparation for TF employed in Example 3 was relipidated into phospholipid (PCPS) vesicles, composed of 75% phosphatidylcholine (PC) and 25% phosphatidylserine (PS). Relipidated TF, 250 pM TF to 500 nM PCPS, was incubated with 2 nM fVIIa in HBS, 2 mM CaCl2 pH 7.4 for ten minutes at room temperature. Next, 50 μM D-FPR-(n-butyl)ANSN was added. Rates of hydrolysis were determined and the rate of hydrolysis by 2 nM fVIIa alone was measured and subtracted from the rates observed in the presence of TF. The net rate of hydrolysis was then compared to the FIG. 2 calibration curve.

Setting [1] is: standardized preparation used as assay standard.

factor VIIa, sequence (P08709 61-212 limits assumed): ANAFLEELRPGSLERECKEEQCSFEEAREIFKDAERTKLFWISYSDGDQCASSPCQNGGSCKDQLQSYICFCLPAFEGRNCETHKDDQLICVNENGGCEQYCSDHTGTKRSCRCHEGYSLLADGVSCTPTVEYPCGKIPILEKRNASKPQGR
factor VIIa, sequence (P08709 213-466 limits assumed): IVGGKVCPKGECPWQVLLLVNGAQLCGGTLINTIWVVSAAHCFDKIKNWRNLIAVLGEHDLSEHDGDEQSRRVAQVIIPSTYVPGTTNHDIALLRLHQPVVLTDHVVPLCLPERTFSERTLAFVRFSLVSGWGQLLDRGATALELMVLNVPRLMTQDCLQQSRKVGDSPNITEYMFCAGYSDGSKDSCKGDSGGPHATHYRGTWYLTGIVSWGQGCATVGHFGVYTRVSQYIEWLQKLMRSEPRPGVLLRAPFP
factor VIIa, sequence (P13726 33-295 partner): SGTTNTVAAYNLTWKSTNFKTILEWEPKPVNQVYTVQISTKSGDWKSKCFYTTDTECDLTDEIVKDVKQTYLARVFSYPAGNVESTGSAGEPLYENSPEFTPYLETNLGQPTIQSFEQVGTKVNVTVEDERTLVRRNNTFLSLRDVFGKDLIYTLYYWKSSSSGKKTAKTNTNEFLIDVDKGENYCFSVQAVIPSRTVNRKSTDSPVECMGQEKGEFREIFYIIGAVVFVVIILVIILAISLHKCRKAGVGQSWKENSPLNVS
fVIIa, sequence (P08709 61-212 limits assumed): as the sequence (P08709 61-212 limits assumed) above
fVIIa, sequence (P08709 213-466 limits assumed): as the sequence (P08709 213-466 limits assumed) above
fVIIa, sequence (P13726 33-295 partner): as the sequence (P13726 33-295 partner) above

Take “recombinant human TF: standardized preparation of recombinant human tissue factor used as assay standard”: in the data set with factor VIIa (setting [1]), the cofactor activity is listed as 241 units/ml and the specific activity came to 3906 units/milligram.

Take “sample of TF: sample of tissue factor (0.8 mg/ml) with an unknown amount of cofactor activity”: the specific activity with factor VIIa (TF sample 0.8 mg/ml) is given as 3504 units per milligram. Also, the “cofactor activity, assay value after correcting for assay dilution” value in the data set with factor VIIa (TF sample 0.8 mg/ml, 120 nM factor VIIa stock, 150 uM D-FPR-(n-butyl)ANSN stock) is on record as 2803 units per milliliter.

Regarding “Relipidated TF: TF preparation of Example 3 relipidated into PCPS vesicles (75% phosphatidylcholine, 25% phosphatidylserine)”, the “TF added to the relipidation mixture expressed as functional TF” value in the data set with fVIIa is 35-40%.
